Reference: publication PMC10619424

Target: haloalkane dehalogenase DmmarA from Mycobacterium marinum M (Mycobacterium marinum M)
Experiment: SAXS; SEC-purified DmmarA at 2, 4.5 and 8.7 mg/ml in 50 mM sodium acetate, 10 mM Tris pH 8.5; scattering curves fitted to the crystallographic monomer and dimer (CRYSOL), ab initio model (DAMMIN)

haloalkane dehalogenase DmmarA from Mycobacterium marinum M (enzyme)
stoichiometry N: 2
